Source: publication PMC7680125

How the values were obtained:
[1] = biological target: Isw1 (ISW1a catalytic subunit);Ioc3 dcHLB del496-565 (Saccharomyces cerevisiae (BY4742?);Saccharomyces cerevisiae (BY4742)) (UniProt P38144+P43596); experiment: EMSA; conditions: 35 mM Na-HEPES pH 7.8, 5 mM MgCl2, 0.1 mM EGTA, 0.02 M EDTA (so in the source), 70 mM NaCl, 0.1 mg/ml BSA, 5-8% glycerol, 40 uM 2-mercaptoethanol, 30 C, 30 min …
[2] = biological target: Isw1 (ISW1a catalytic subunit);Ioc3 (Saccharomyces cerevisiae (BY4742?);Saccharomyces cerevisiae (BY4742)) (UniProt P38144+P43596); experiment: EMSA; conditions: 35 mM Na-HEPES pH 7.8, 5 mM MgCl2, 0.1 mM EGTA, 0.02 M EDTA (so in the source), 70 mM NaCl, 0.1 mg/ml BSA, 5-8% glycerol, 40 uM 2-mercaptoethanol, 30 C, 30 min …

CCGGACGTATATATCTGACACGTGCCTGGCGACTAGGGAGCGATCCCCTTGGCGGTTAAAACGCGGGGGACAGCGCGTACGTGCGTTTAAGCGGTGCTAGAGCTGTCTACGACCAATTGAGCGGCCTCGGCACCGGGAATCTCCAGGGCGGCCGCGTATAGGCTCCGGATCCTCTAGAGTCGACCTCGAAACGGGTACCCCAGGGACTTGAAGTAATAAGGACGGAGGGCCTCTTTCAACATCGATGCACGGTGGTTAGCCTTGGATTGCGCTCTACCGAGCGCTAAGCGTACTTAGAAGCGCGAGCGACGACTTCACACGGTAGGTGGGCGCGCGAACTGGGCAGATCC (double strand) [0(N1)50(N2)6 dinucleosome]
Kd [1]: 34.5 nM | Kd [2]: 45.9 nM

0N70 mononucleosome
Kd [1]: 32.5 nM | Kd [2]: 30.3 nM

CACCGGCACGGTCGCTGTTCGATACGTGCGCCGGACGTATATATCTGACACGTGCCTGGCGACTAGGGAGCGATCCCCTTGGCGGTTAAAACGCGGGGGACAGCGCGTACGTGCGTTTAAGCGGTGCTAGAGCTGTCTACGACCAATTGAGCGGCCTCGGCACCGGGAATCTCCAGGGCGGCCGCGTATAGGCTCCGGATCCTCTAGAGTCGACCTCGAAACGGGTACCCCAGGGACTTGAAGTAATAAGGACGGAGGGCCTCTTTCAACATCGATGCACGGTGGTTAGCCTTGGATTGCGCTCTACCGAGCGCTAAGCGTACTTAGAAGCGCGAGCGACGACTTCACACGGTAGGTGGGCGCGCGAACTGGGCAGATCC (double strand) [30(N1)50(N2)6 dinucleosome]
Kd [1]: 28 nM | Kd [2]: 10.2 nM

TCGGAACGCTATCCGACTGGCACCGGCACGGTCGCTGTTCGATACGTGCGCCGGACGTATATATCTGACACGTGCCTGGCGACTAGGGAGCGATCCCCTTGGCGGTTAAAACGCGGGGGACAGCGCGTACGTGCGTTTAAGCGGTGCTAGAGCTGTCTACGACCAATTGAGCGGCCTCGGCACCGGGAATCTCCAGGGCGGCCGCGTATAGGCTCCGGATCCTCTAGAGTCGACCTCGAAACGGGTACCCCAGGGACTTGAAGTAATAAGGACGGAGGGCCTCTTTCAACATCGATGCACGGTGGTTAGCCTTGGATTGCGCTCTACCGAGCGCTAAGCGTACTTAGAAGCGCGAGCGACGACTTCACACGGTAGGTGGGCGCGCGAACTGGGCAGATCC (double strand) [50(N1)50(N2)6 dinucleosome]
Kd [1]: 12.5 nM | Kd [2]: 5.29 nM
